For the assay, the target named is rice XA21 receptor kinase (rice). The assay can be described thus: cell-based or functional assay.
Substance RaxX21-sY (peptide) registered an EC50 of total ROS production over 3 h in Ubi::XA21 rice leaves of 20 nM.
Under RaxX24-sY (peptide) stands 30 nM.
Under RaxX39-sY (peptide) stands 70 nM.
Turning to “RaxX60-sY (full-length sulfated recombinant RaxX-His from Xoo PXO99) (ligand)”, the EC50 of total ROS production over 3 h in Ubi::XA21 rice leaves came to 100 nM.

(Values after patent US20200048654A1.)
